Measurements published in CN114907476A (SHANGHAI PHARMACEUTICALS HOLDING CO LTD, dated 2022).
Numbering of substitutions follows the chain as printed. Like-named read-outs stand apart in the source and are kept apart here.

T1: SPH-B011-A-Antigen-his蛋白 (人TIGIT) (human, UniProt Q495A1 22-141, limits assumed)
T1 construct: Analyte of the Biacore assay; also called 抗原(人TIGIT); not shown: his tag
T1 sequence (looked up): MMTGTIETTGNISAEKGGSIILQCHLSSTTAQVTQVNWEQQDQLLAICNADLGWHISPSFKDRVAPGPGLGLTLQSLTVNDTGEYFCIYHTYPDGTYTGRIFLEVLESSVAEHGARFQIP

T2: 表达于CHOK1细胞表面的人TIGIT (CHOK1/人TIGIT细胞, 吉满生物 GM-C01116) (human, UniProt Q495A1 22-244)
T2 construct: whole, on cells; Purchased cell line; also called CHOK1/hTIGIT
T2 sequence (looked up): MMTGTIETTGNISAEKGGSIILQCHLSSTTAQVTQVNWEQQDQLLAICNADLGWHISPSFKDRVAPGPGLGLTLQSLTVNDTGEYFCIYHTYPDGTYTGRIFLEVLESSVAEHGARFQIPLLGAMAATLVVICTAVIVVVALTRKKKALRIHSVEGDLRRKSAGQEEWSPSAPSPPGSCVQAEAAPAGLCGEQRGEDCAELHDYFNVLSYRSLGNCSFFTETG

B1: 人源化抗TIGIT抗体A2 (antibody, human IgG1, kappa, V domains shown)
VH: QLQLVQSGAEVKKPGASVKVSCKASGYSFTDYNMNWVRQAPGQSLEWIGVINPNHGTISYNQKFKGRVTMTRDQSTSTAYMELNSLRSEDTAVYYCANNWDVWYFDVWGQGTLVTVSS
VL: DIQMTQSPSSLSASVGDRVTITCRPSENIYSYLAWYQQKPGKAPKLLVYNAKALAEGVPSRFSGSGSGTDFTLTISSLQPEDFATYYCQHHFGAPWTFGQGTKVEIKR
notes: Humanized
B2: 人源化抗TIGIT抗体A3 (antibody, human IgG1, kappa, V domains shown)
VH: B1 VH
VL: B1 VL with K42N, D70Q
notes: Humanized
B3: 人源化抗TIGIT抗体A4 (antibody, human IgG1, kappa, V domains shown)
VH: B1 VH
VL: B1 VL with K42N, A43S, D70Q, Q100G
notes: Humanized
B4: 人源化抗TIGIT抗体A1 (antibody, human IgG1, kappa, V domains shown)
VH: B1 VH
VL: B1 VL with V48I
notes: Humanized
B5: 阳性对照抗体P1 (antibody, human IgG1, kappa, V domains shown)
VH: QVQLQESGPGLVKPSETLSLTCTVSGGSVSSGIYYWSWIRQPPGKGLEWIGYIYYSGSTNYNPSLKSRVTISVDTSKNQFSLKLSSVTAADTAVYYCARDYYVSGNYYNVDYYFFGVDVWGQGTTVTVSS
VL: EIVLTQSPATLSLSPGERATLSCRASQSVSSYLAWYQQKPGQAPRLLIYDASNRATGIPARFSGSGSGTDFTLTISSLEPEDFAVYYCQQRSNWPPLFTFGPGTKVDIKR
notes: Positive control anti-TIGIT antibody
B6: 嵌合抗TIGIT抗体A0 (antibody, human IgG1, kappa, V domains shown)
VH: ELQLQQSGPELVKPGASVKISCKASGYSFTDYNMNWVKQSNGKSLEWIGVINPNHGTISYNQKFKGKATLTVDQSSSTAYMQLNSLTSEDSAVYYCANNWDVWYFDVWGTGTTVTVSS
VL: DIQMTQSPASLSASVGETVTITCRPSENIYSYLAWYRQKQGNSPQLLVYNAKALAEGVPSRFSGSGSGTQFSLKINSLQPEDFGSYYCQHHFGAPWTFGGGTKLEIKR
notes: also called B011-A-142E4C5
B7: 阳性对照抗体P4 (antibody, human IgG1, kappa, V domains shown)
VH: EVQLQQSGPGLVKPSQTLSLTCAISGDSVSSNSAAWNWIRQSPSRGLEWLGKTYYRFKWYSDYAVSVKGRITINPDTSKNQFSLQLNSVTPEDTAVFYCTRESTTYDLLAGPFDYWGQGTLVTVSS
VL: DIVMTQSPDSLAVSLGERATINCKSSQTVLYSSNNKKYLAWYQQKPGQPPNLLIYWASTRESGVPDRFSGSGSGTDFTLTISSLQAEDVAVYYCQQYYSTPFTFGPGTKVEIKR
notes: as for B5

Legend:
[1] = molecular target: T1, SPH-B011-A-Antigen-his蛋白 (人TIGIT); assay: Biacore, antibody captured on anti-Fc CM5 chip, human TIGIT-his 100nM as analyte, 25℃
[2] = molecular target: T2, 表达于CHOK1细胞表面的人TIGIT (CHOK1/人TIGIT细胞, …); assay: flow cytometry competition, inhibition of Biotinylated-CD155 (0.6μg/ml) binding to CHOK1/hTIGIT cells
[3] = molecular target: T2, 表达于CHOK1细胞表面的人TIGIT (CHOK1/人TIGIT细胞, …); assay: flow cytometry competition, EC50 of % inhibition of Biotinylated-CD155 (0.6μg/ml) binding to CHOK1/hTIGIT cells
[4] = molecular target: Jurkat-hTIGIT-NFAT-CD226细胞上过表达的人TIGIT (human); assay: cell-based or functional assay
[5] = molecular target: T2, 表达于CHOK1细胞表面的人TIGIT (CHOK1/人TIGIT细胞, …); assay: flow cytometry on CHOK1/hTIGIT cells, EC50 of MFI
[6] = molecular target: T2, 表达于CHOK1细胞表面的人TIGIT (CHOK1/人TIGIT细胞, …); assay: flow cytometry on CHOK1/hTIGIT cells
[7] = molecular target: T2, 表达于CHOK1细胞表面的人TIGIT (CHOK1/人TIGIT细胞, …); assay: flow cytometry competition, inhibition of Biotinylated-CD155 (0.6μg/ml) binding to CHOK1/human TIGIT cells
[8] = molecular target: Jurkat-hTIGIT-NFAT-CD226细胞上过表达的人TIGIT (human); assay: cell-based or functional assay; remark: listed apart in the source
[9] = molecular target: T2, 表达于CHOK1细胞表面的人TIGIT (CHOK1/人TIGIT细胞, …); assay: flow cytometry competition, EC50 of % inhibition of Biotinylated-CD155 (0.6μg/ml) binding to CHOK1/human TIGIT cells

Sequence of Jurkat-hTIGIT-NFAT-CD226细胞上过表达的人TIGIT (human) (Q495A1 whole entry): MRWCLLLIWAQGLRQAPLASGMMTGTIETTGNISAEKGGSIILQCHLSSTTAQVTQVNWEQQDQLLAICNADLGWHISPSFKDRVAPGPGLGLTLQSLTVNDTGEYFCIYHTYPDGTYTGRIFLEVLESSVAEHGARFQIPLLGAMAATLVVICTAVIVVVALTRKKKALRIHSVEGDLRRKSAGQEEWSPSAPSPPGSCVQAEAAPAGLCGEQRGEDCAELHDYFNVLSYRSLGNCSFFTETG

Binder | Kd [1] | koff [1] | kon [1] | 最大抑制 [2] | EC50 [3] | EC50(μg/ml)of RLU [4] | Max RLU [4] | EC50 [5] | 最大MFI [6] | 最大抑制 [7] | EC50(μg/ml)of RLU [8] | 最大RLU [8] | EC50 [9]
B1 | 4.3 nM | 0.00241 s⁻¹ | 560000 M⁻¹ s⁻¹ | 99.6% | 0.406 µg/mL | 1.01 µg/mL | 9210 RLU | 0.312 µg/mL | 10600 MFI | – | – | – | –
B2 | 4.66 nM | 0.00225 s⁻¹ | 483000 M⁻¹ s⁻¹ | 99.6% | 0.427 µg/mL | 0.782 µg/mL | 9370 RLU | 0.329 µg/mL | 10200 MFI | – | – | – | –
B3 | 4.85 nM | 0.00257 s⁻¹ | 529000 M⁻¹ s⁻¹ | 99.5% | 0.27 µg/mL | 0.847 µg/mL | 8810 RLU | 0.496 µg/mL | 10100 MFI | – | – | – | –
B4 | 4.62 nM | 0.00251 s⁻¹ | 544000 M⁻¹ s⁻¹ | 99.3% | 0.43 µg/mL | 1.18 µg/mL | 8950 RLU | 0.36 µg/mL | 10800 MFI | – | – | – | –
B5 | – | – | – | 100% | 0.306 µg/mL | 0.305 µg/mL | 10500 RLU | 0.264 µg/mL | 13500 MFI | 99.7% | 0.633 µg/mL | 9080 RLU | 0.189 µg/mL
B6 | – | – | – | 99.2% | 0.384 µg/mL | 1.32 µg/mL | 9270 RLU | ~0.139 µg/mL | 9890 MFI | 99.8% | 0.922 µg/mL | 8260 RLU | 0.138 µg/mL
B7 | – | – | – | 100% | 0.309 µg/mL | 0.357 µg/mL | 9610 RLU | 0.214 µg/mL | 10300 MFI | 100% | 0.534 µg/mL | 8840 RLU | 0.103 µg/mL
